In JP2003510672A:

What was measured:
[1] = target: ヒト組換え型CD4 (RepliGen, USA) (human) (UniProt P01730); assay: SPR (BIACORE 2000, 25 C), KD calculated as kd/ka; mimetic immobilised, soluble CD4 injected
[2] = target: ヒト組換え型CD4 (RepliGen, USA) (human) (UniProt P01730); assay: SPR (BIACORE 2000, 25 C), mimetic immobilised on B1 chip, soluble CD4 injected at 16-330 nM

- Kd [1]: 3.2 nM
- koff [2]: 0.000264 s⁻¹
- kon [2]: 82600 M⁻¹ s⁻¹
Substance: 疑似体 Mk3Tyr-long1SH (cyclic peptide mimetic of the ST40 paratope; MK3Tyr with the Ile between Tyr140 and Asn144 replaced by Lys extended with 3-mercaptopropionic acid)
